Columns and labels:
[1] = system: HeLa Kyoto; experiment: solubility in G1/S (NP-40 vs SDS abundance) (log2 ratio); higher = more soluble; settings: cell cycle stage: G1/S
[2] = system: HeLa Kyoto; experiment: solubility change mitosis vs G1/S (difference of NP-40 vs SDS log2 ratios) (log2 ratio difference); higher = more soluble in mitosis
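Wherever solubility change mitosis vs G1/S (difference of NP-40 vs SDS log2 ratios) is given: synchronized HeLa Kyoto cells (double thymidine block for G1/S, nocodazole release for mitosis), protein amounts in NP-40 versus SDS lysates quantified by mass spectrometry, three biological replicates.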
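Wherever solubility in G1/S (NP-40 vs SDS abundance) is given: HeLa Kyoto cells arrested at G1/S by double thymidine block, proteins quantified by TMT10plex mass spectrometry in mild NP-40 versus SDS extracts, three biological replicates.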

Substance	solubility in G1/S (log2) [1]	solubility change mitosis (log2) [2]
MCARMAGRTTAAPRGPYGPWLCLLVALALDVVRVDCGQAPLDPVYLPAALELLDAPEHFRVQQVGHYPPANSSLSSRSETFLLLQPWPRAQPLLRASYPPFATQQVVPPRVTEPHQRPVPWDVRAVSVEAAVTPAEPYARVLFHLKGQDWPPGSGSLPCARLHATHPAGTAHQACRFQPSLGACVVELELPSHWFSQASTTRAELAYTLEPAAEGPGGCGSGEENDPGEQALPVGGVELRPADPPQYQEVPLDEAVTLRVPDMPVRPGQLFSATLLLRHNFTASLLTLRIKVKKGLHVTAARPAQPTLWTAKLDRFKGSRHHTTLITCHRAGLTEPDSSPLELSEFLWVDFVVENSTGGGVAVTRPVTWQLEYPGQAPEAEKDKMVWEILVSERDIRALIPLAKAEELVNTAPLTGVPQHVPVRLVTVDGGGALVEVTEHVGCESANTQVLQVSEACDAVFVAGKESRGARGVRVDFWWRRLRASLRLTVWAPLLPLRIELTDTTLEQVRGWRVPGPAEGPAEPAAEASDEAERRARGCHLQYQRAGVRFLAPFAAHPLDGGRRLTHLLGPDWLLDVSHLVAPHARVLDSRVASLEGGRVVVGREPGVTSIEVRSPLSDSILGEQALAVTDDKVSVLELRVQPVMGISLTLSRGTAHPGEVTATCWAQSALPAPKQEVALSLWLSFSDHTVAPAELYDRRDLGLSVSAEEPGAILPAEEQGAQLGVVVSGAGAEGLPLHVALHPPEPCRRGRHRVPLASGTAWLGLPPASTPAPALPSSPAWSPPATEATMGGKRQVAGSVGGNTGVRGKFERAEEEARKEETEAREEEEEEEEEMVPAPQHVTELELGMYALLGVFCVAIFIFLVNGVVFVLRYQRKEPPDSATDPTSPQPHNWVWLGTDQEELSRQLDRQSPGPPKGEGSCPCESGGGGEAPTLAPGPPGGTTSSSSTLARKEAGGRRKRVEFVTFAPAPPAQSPEEPVGAPAVQSILVAGEEDIRWVCEDMGLKDPEELRNYMERIRGSS [TMEM132A]	-0.00491	-0.0467
MNFTPTHTPVCRKRTVVSKRGVAVSGPTKRRGMADSLESTPLPSPEDRLAKLHPSKELLEYYQKKMAECEAENEDLLKKLELYKEACEGQHKLECDLQQREEEIAELQKALSDMQVCLFQEREHVLRLYSENDRLRIRELEDKKKIQNLLALVGTDAGEVTYFCKEPPHKVTILQKTIQAVGECEQSESSAFKADPKISKRRPSRERKESSEHYQRDIQTLILQVEALQAQLGEQTKLSREQIEGLIEDRRIHLEEIQVQHQRNQNKIKELTKNLHHTQELLYESTKDFLQLRSENQNKEKSWMLEKDNLMSKIKQYRVQCKKKEDKIGKVLPVMHESHHAQSEYIKSLKDKLVQEKKLSNMYQEQCISLEEELARIREEEGMRREIFKDRTNKMGKRLQIMTKRYEALERRRILEVEGFKTDIKVLRQKLKDLEQMLYKATVNARANQDLALLCEVRDSNRRAHKIQGELKNLKSKVFGLENELRLC [CCDC77]	-0.0939	0.373
ARHGEF11	-0.0113	-0.0196
MSGEPELIELRELAPAGRAGKGRTRLERANALRIARGTACNPTRQLVPGRGHRFQPAGPATHTWCDLCGDFIWGVVRKGLQCARLSADCKFTCHYRCRALVCLDCCGPRDLGWEPAVERDTNVDEPVEWETPDLSQAEIEQKIKEYNAQINSNLFMSLNKDGSYTGFIKVQLKLVRPVSVPSSKKPPSLQDARRGPGRGTSVRRRTSFYLPKDAVKHLHVLSRTRAREVIEALLRKFLVVDDPRKFALFERAERHGQVYLRKLLDDEQPLRLRLLAGPSDKALSFVLKENDSGEVNWDAFSMPELHNFLRILQREEEEHLRQILQKYSYCRQKIQEALHACPLG [RASSF1]	0.0141	0.0429
